The values below come from paper PMC8131632 (2021).

B1: CB6/Junshi Fab-TD (Fab, V domains shown)
VH: EVQLVESGGGLVQPGGSLRLSCAASGFTVSSNYMSWVRQAPGKGLEWVSVIYSGGSTFYADSVKGRFTISRDNSMNTLFLQMNSLRAEDTAVYYCARVLPMYGDYLDYWGQGTLVTVSS
VL: not shown
B2: CB6/Junshi mIg-TD (antibody, V domains shown)
VH: EVQLVESGGGLVQPGGSLRLSCAASGFTVSSNYMSWVRQAPGKGLEWVSVIYSGGSTFYADSVKGRFTISRDNSMNTLFLQMNSLRAEDTAVYYCARVLPMYGDYLDYWGQGTLVTVSS
VL: not shown
B3: CB6/Junshi Ig-TD (antibody, V domains shown)
VH: EVQLVESGGGLVQPGGSLRLSCAASGFTVSSNYMSWVRQAPGKGLEWVSVIYSGGSTFYADSVKGRFTISRDNSMNTLFLQMNSLRAEDTAVYYCARVLPMYGDYLDYWGQGTLVTVSS
VL: not shown
B4: REGN10933 Ig-TD (antibody, V domains shown)
VH: QVQLVESGGGLVKPGGSLRLSCAASGFTFSDYYMSWIRQAPGKGLEWVSYITYSGSTIYYADSVKGRFTISRDNAKSSLYLQMNSLRAEDTAVYYCARDRGTTMVPFDYWGQGTLVTVSS
VL: DIQMTQSPSSLSASVGDRVTITCQASQDITNYLNWYQQKPGKAPKLLIYAASNLETGVPSRFSGSGSGTDFTFTISGLQPEDIATYYCQQYDNLPLTFGGGTKVEIK
B5: REGN10933 IgG1 (antibody, V domains shown)
VH: QVQLVESGGGLVKPGGSLRLSCAASGFTFSDYYMSWIRQAPGKGLEWVSYITYSGSTIYYADSVKGRFTISRDNAKSSLYLQMNSLRAEDTAVYYCARDRGTTMVPFDYWGQGTLVTVSS
VL: DIQMTQSPSSLSASVGDRVTITCQASQDITNYLNWYQQKPGKAPKLLIYAASNLETGVPSRFSGSGSGTDFTFTISGLQPEDIATYYCQQYDNLPLTFGGGTKVEIK
B6: REGN10933 mIg-TD (antibody, V domains shown)
VH: QVQLVESGGGLVKPGGSLRLSCAASGFTFSDYYMSWIRQAPGKGLEWVSYITYSGSTIYYADSVKGRFTISRDNAKSSLYLQMNSLRAEDTAVYYCARDRGTTMVPFDYWGQGTLVTVSS
VL: DIQMTQSPSSLSASVGDRVTITCQASQDITNYLNWYQQKPGKAPKLLIYAASNLETGVPSRFSGSGSGTDFTFTISGLQPEDIATYYCQQYDNLPLTFGGGTKVEIK
B7: REGN10933 Fab-TD (Fab, V domains shown)
VH: QVQLVESGGGLVKPGGSLRLSCAASGFTFSDYYMSWIRQAPGKGLEWVSYITYSGSTIYYADSVKGRFTISRDNAKSSLYLQMNSLRAEDTAVYYCARDRGTTMVPFDYWGQGTLVTVSS
VL: DIQMTQSPSSLSASVGDRVTITCQASQDITNYLNWYQQKPGKAPKLLIYAASNLETGVPSRFSGSGSGTDFTFTISGLQPEDIATYYCQQYDNLPLTFGGGTKVEIK
B8: REGN10987 Fab-TD (Fab, V domains shown)
VH: QVQLVESGGGVVQPGRSLRLSCAASGFTFSNYAMYWVRQAPGKGLEWVAVISYDGSNKYYADSVKGRFTISRDNSKNTLYLQMNSLRTEDTAVYYCASGSDYGDYLLVYWGQGTLVTVSS
VL: QSALTQPASVSGSPGQSITISCTGTSSDVGGYNYVSWYQQHPGKAPKLMIYDVSKRPSGVSNRFSGSKSGNTASLTISGLQSEDEADYYCNSLTSISTWVFGGGTKLTVL
B9: REGN10987 mIg-TD (antibody, V domains shown)
VH: QVQLVESGGGVVQPGRSLRLSCAASGFTFSNYAMYWVRQAPGKGLEWVAVISYDGSNKYYADSVKGRFTISRDNSKNTLYLQMNSLRTEDTAVYYCASGSDYGDYLLVYWGQGTLVTVSS
VL: QSALTQPASVSGSPGQSITISCTGTSSDVGGYNYVSWYQQHPGKAPKLMIYDVSKRPSGVSNRFSGSKSGNTASLTISGLQSEDEADYYCNSLTSISTWVFGGGTKLTVL
B10: REGN10987 Ig-TD (antibody, V domains shown)
VH: QVQLVESGGGVVQPGRSLRLSCAASGFTFSNYAMYWVRQAPGKGLEWVAVISYDGSNKYYADSVKGRFTISRDNSKNTLYLQMNSLRTEDTAVYYCASGSDYGDYLLVYWGQGTLVTVSS
VL: QSALTQPASVSGSPGQSITISCTGTSSDVGGYNYVSWYQQHPGKAPKLMIYDVSKRPSGVSNRFSGSKSGNTASLTISGLQSEDEADYYCNSLTSISTWVFGGGTKLTVL

The target in the assay is SARS-CoV-2 spike receptor binding domain (RBD), Avi-tagged and biotinylated (SARS-CoV-2, UniProt P0DTC2 319-541, biotin (Avi tag, by BirA)). Put plainly: ELISA.
Broadly, the IC50 is the concentration that gives 50% inhibition. A high value points to weaker potency. The molecule B1 came in with a half-maximal inhibitory concentration (IC50) of 0.03 nM. For the molecule B2, the half-inhibitory concentration (IC50) came out at 0.29 nM.

Consider B3, for which the IC50 stood at 0.1 nM.

For the molecule B4, the IC50 turned out to be 0.045 nM. Under B5 stands 1.45 nM. Under B6 stands 0.18 nM; under B7, 0.012 nM; under B8, 0.02 nM.

As for B9, the IC50 turned out to be 0.4 nM.

Consider B10, for which the 50% inhibitory concentration (IC50) turned out to be 0.12 nM.
